Measurements: the nanobody polyreactivity screen of Harvey et al. (2022)

Test: yeast display, Sf9 membrane polyspecificity reagent, FACS + sequencing; frameworks hold sequencing errors
How it was run: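 Synthetic nanobody libraries on Saccharomyces cerevisiae BJ5465 were galactose-induced for 36–48 hours, stained 1 hour at 4 °C with 10% biotinylated, detergent-solubilized Sf9 membrane reagent and enriched on streptavidin microbeads. FACS then separated cells into low and high (top ~1%) gates by anti-HA (expression) and streptavidin (reagent binding) fluorescence. Genes were colony-PCR amplified, MiSeq 2 × 250 sequenced and CDR-length filtered. A clone's polyreactivity label is that of its gate of origin.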

Sequence | polyreactivity (PSR sort gate)
QVQLVESGGGLVQAGGSLRLSCAASGSTFVGYAMRGYRQAPGKERELVADIDSIGGSTYYADSVKGRFTISRDNAKNTVYLQMNSLKPEDTAVYYCAARRFDTALVLYDYWGQGTQVTVSS | low polyreactivity
QVQLVESGGGLVQAGGSLRLSCAASGSTFVHYAMGWYRQAPGKERELVAAITWSGGSTYYADSVKGRFTISRDNAKNTVYLPMNSLKPEDTAVYYCAARNFGAWRWYSYGAHLGSEYWGQGTQVTVSS | low polyreactivity
QVQLVESGGGLVQAGGSLRLSCAASGSTFVINAMGWYRQAPGKERELVADIDYRGGSTNYADSVKGRFTISRDNAKNTVYLQMNSLKPEDTAVYYCNKRYVIRRRGYDYWGQGTQVTVSS | low polyreactivity
QVQLVESGGGLVQAGGSLRLSCAASGSTFVIYAMGWYRQAPGKERELVAAITISGGRTYYADSVKGRFTISRDKAKNTVYLQMNSLKPEDTAVYYCAATVVSTYPYGYGSSFVRDDYWGQGTQVTVSS | low polyreactivity
QVQLVESGGGLVQAGGSLRLSCAASGSTFVIYDMGWYRQAPGKERELVAAISYSGGSTYYADSVKGRFTISRDNAKNTVYLQMNSLKPEDTAVYYCNAGVLVLLYAYLPSEQEYWGQGTQVTVSS | low polyreactivity
QVQLVESGGGLVQAGGSLRLSCAASGSTFVIYTMGWYRQAPVKERELVAAISWSGGITRYADSVKGRFTISRDNAKNTVYLQMNSLKPEDTAVYYCNASQWPSRFDYWGQGTQVTVSS | low polyreactivity
QVQLVESGGGLVQAGGSLRLSCAASGSTFVKYAMGWYRQAPGKERELVARISSSGGSTYYADSVKGRFTISRDNAKNTVYLQMNSLKPEDTAVYYCAAPSLIAKYDYWGQGTQVTVSS | high polyreactivity
QVQLVESGGGLVQAGGSLRLSCAASGSTFVLNAMGWYRQAPGKERELVAAINLDSGNTNYADSVKGRFTISRDNAKYTVYLQMNSLKPEDTAVYYCNTDVKFGGTAYDYWGQGTQVTVSS | low polyreactivity
QVQLVESGGGLVQAGGSLRLSCAASGSTFVLNAMGWYRQSPGKERQLVAGISYGTGSTYYADSVKGRITISRDNAKNTVYLQMNSLKPEDTAVYFCAADNWAVNAYYWYIYDYWGQGTQVTVSS | low polyreactivity
QVQLVESGGGLVQAGGSLRLSCAASGSTFVNNAMGWYIQAPGKERELVAAIRSSDGRTYYADSVKGRFTISRDNAKNTVYLQMNSLKPEDTAVYYCATAVGTKYRTRIFEYYYWGQGTQVTVSS | high polyreactivity
QVQLVESGGGLVQAGGSLRLSCAASGSTFVNYAMVWYRQAPGKERELVAAITRGGYTYYADSVKGRFTISRDNAKNTVYLEMNSLKPEDTAFYYCNAAVSYPKYPYVSPGVPSYDYWGQGTQVSVSS | low polyreactivity
QVQLVESGGGLVQAGGSLRLSCAASGSTFVPYAMGWYRPAPGKERELVAGITFSGGSTYYADSVKGRFTISRDNAKNTVYLQMNSLKPEDTAVYYCAAGGWRGHYYWGQGTQVTVSS | high polyreactivity
QVQLVESGGGLVQAGGSLRLSCAASGSTFVPYTMGWYRQAPGKERELVAAISGSGGTDYADSVKGRFTISRDNAKNTVYLQMNSLKPEDTAVYYCATDGLDFWFIYDYWGQGTQVTVSS | low polyreactivity
QVQLVESGGGLVQAGGSLRLSCAASGSTFVPYTMGWYRQAPGKERELVAVITSGGSTNYADSVKGRFTISRDNAKNTVYLQMNSLKPEDTAVYYCAAYGGTHYTYRYDYWGQGTQVTVSS | high polyreactivity
QVQLVESGGGLVQAGGSLRLSCAASGSTFVPYVMGWYRQAPGKERELVAAISKSGTSTYYADSVKGRFTISRDNAKNTDYLQMNSLKPEDTAVYYCAAVARRQVPYDYWGQGTQVTVSS | high polyreactivity
QVQLVESGGGLVQAGGSLRLSCAASGSTFVQNDMGWYIPAPGKERELVAAISRTGGSTYYADSVKGRFTISRDNAKNTVYLQMNSLKPEDTAVYYCARRYYYQYRYDYWGQGTQVTVSS | high polyreactivity
QVQLVESGGGLVQAGGSLRLSCAASGSTFVQYAMGWYRQAPGKERELVAAITRSGGSTYYADSVKGRFTISRDNAKNTVYLQMNSLKPEDTAVYYCAARHYRSRDGYWGQGTQVTVSS | high polyreactivity
QVQLVESGGGLVQAGGSLRLSCAASGSTFVRNAMGWYRQAPGKERELVAAIRWRSGSTYYADSVKGRFTISRDNAKNTVYLQMNSLKPEDTAVYYCAVDYNSFRYGPLGYWGQGTQVTVSS | high polyreactivity
QVQLVESGGGLVQAGGSLRLSCAASGSTFVRNAMGWYRQAPGKERELVAAISNVGSTYYADSVKGRFTISRDNAKNTVYLQMNSLKPEDTAVYYGTKQLWYHKFNYWGQGTQVTVSS | low polyreactivity
QVQLVESGGGLVQAGGSLRLSCAASGSTFVRNAMGWYRQAPGKERELVAAITSSGGSTYYADSVKGRFTISRDNAKNTVYLQMNSLKPVDTAVYYCNARVPPQGWGPWKAFDYWGQGTQVTVSS | low polyreactivity
QVQLVESGGGLVQAGGSLRLSCAASGSTFVRYAMGWYRQAPGKEREFVASITCRGGSTYYADSVKGRFTITRDNAKNTVYLQMNSLKPEDTAVYYCAARGREWYYWGQGTQVTVSS | high polyreactivity
QVQLVESGGGLVQAGGSLRLSCAASGSTFVSNAMGWYRQAPGKERELVARITGSGGNTYYADSVKGRFTISRDNAKNTVYLQMNSLKPEDTAVYYCNADVFRKFGSPSAYKSHRYDYWGQGTQVTVSS | low polyreactivity

Sequence | polyreactivity (PSR sort gate)
QVQLVESGGGLVQAGGSLRLSCAASGSTFVSNTMGWYRQAPGKERELVAAITWTGGRTYYADSVKGRFTISRDNAKNTVYLQMNSLKPEDTAVYYCAAVGTRKMYYWGQGTQVTVSS | high polyreactivity
QVQLVESGGGLVQAGGSLRLSCAASGSTFVTNAMGWYRQAPGKEREFVAAISNSSGSTYYADSVKGRFTISRDNAKNTVYLQMNSLKPEDTAVYYCIATPDDWLQEDYWGQGTQVTVSS | low polyreactivity
QVQLVESGGGLVQAGGSLRLSCAASGSTFVTNGMGWYRQEPGKERELVAAISGNVGSTYYADSVKGRFTISRDNEKNTVYLQMNSLKPEDTAVYYCAARQYRPSDYDYWGQGTQVTVSS | low polyreactivity
QVQLVESGGGLVQAGGSLRLSCAASGSTFVTNVMGWYRQATGKERELVAAISYSGGNTYYEDSVKGRFTISRDNAKNTVYLQMNSLKPEDTAVYYCAAKYRRWGMEYWGQGTQVTVSS | high polyreactivity
QVQLVESGGGLVQAGGSLRLSCAASGSTFVTYAMGRYRQAPGKERELVAAISSAGSTNYADSVKGRFTISRDNAKNTVYLQMNSLKPEDTAVYYCARDIQDTYEFDYWGQGTQVTVSS | low polyreactivity
QVQLVESGGGLVQAGGSLRLSCAASGSTFVTYTMGWYRQAPGKEREFVATISRSGCSTYYADSVKGRFTISRDNAKNTVYLQMNSLKPEDTAVYYCAAVRLVISKYWYIPYDYWGQGTQVTVSS | low polyreactivity
QVQLVESGGGLVQAGGSLRLSCAASGSTFVVNAMGWYRQAPGKERELVAAITQSGGSTFYADSVKGRFTISRDNAKNTVYLQMNSLKPEDTAVYYWGLGTQVTVSS | low polyreactivity
QVQLVESGGGLVQAGGSLRLSCAASGSTFVVNAMVWYRQAPGKERELVAAITQDGDGTYYADSVKGRFTISRDNAKNTVYLQMNSLKPEDTAVYYCAAYPFYGPYDEFDYWGQGTQVTVSS | low polyreactivity
QVQLVESGGGLVQAGGSLRLSCAASGSTFVVYAMGWYRQAPGKEREFVAAITYRGGRTYYADSVKGRFTISRDNAKNTVYLQMNSLKPEDTAVYYCNAPIVRSGYVRSIPAVYYSYYYWGQGTQVTVSS | high polyreactivity
QVQLVESGGGLVQAGGSLRLSCAASGSTFVWNAMGWYRQAPGKERELVAAITNDGRTNYADSVKGRFTISRDNAKNTVYLQMNSLKPEDTAVYYCNADGFNSYWWNYYWGQGTQVTVSS | low polyreactivity
QVQLVESGGGLVQAGGSLRLSCAASGSTFVWNAMGWYRQAPGKERELVATITLSTGSTYYADSVKGRFTISRDNAKNTVYLQMNSLKPEDTAVYYCNTEIYVDIISDYGYWGQGTQVTVSS | low polyreactivity
QVQLVESGGGLVQAGGSLRLSCAASGSTFVYAMVWYRPAPGKERELVAAITTGDSTYYADSVKGRFTISRDNAKNTVYLQMNSLKPEDTAVYYCAAQWYTRDGEYGYWGQGTQVTVSS | low polyreactivity
QVQLVESGGGLVQAGGSLRLSCAASGSTFVYNAMGWYRQAPGKERELVAAISRGGGITYYADSVKGRFTISRDNAKNTVYLQMNSLKPEDTAVYYCNKSRYKSYSYDYWGQGTQVTVSS | high polyreactivity
QVQLVESGGGLVQAGGSLRLSCAASGSTFVYNDMGWYRQAPGKEREFVAAITYSGSTYYADSVNGRFTISRDNAKNTVYLQMNSLKPEDTAVYYCNADPRRPVTSYDYWGQGTQVTVSS | low polyreactivity
QVQLVESGGGLVQAGGSLRLSCAASGSTFVYYAMGRYRQAPGKERELVAAITASGGGTYYADSVKGRFTISRDNAKNTVYLQMNSLKPEDTAVYYCNRGYDYWGQGTQVTVSS | low polyreactivity
QVQLVESGGGLVQAGGSLRLSCAASGSTFVYYAMGWSRQAPGKERELVASIRTGGTTNYADSVKGRFTISRDNAKNTVYLQMNSLKPEDTAVYYCNKDTRPTDTTVSLYYWSAWRDYWGQGTQVTVSS | low polyreactivity
QVQLVESGGGLVQAGGSLRLSCAASGSTFVYYAMGWYIQAPGKEREFVAGISRSGGSTYYADSVKGRFTISRDNAMNTVYLQMNSLKPEDTAVYSCNASGGLPKYGYWGQGTQVTVSS | high polyreactivity
QVQLVESGGGLVQAGGSLRLSCAASGSTFVYYDMGWYRQAPGKERELVADISDSGGSTNYADSVKGRFTISRDNAKNTVYLQMNSLKPEDTAVYYCAADSADPTEYDYWGQGTQVTVSS | low polyreactivity
QVQLVESGGGLVQAGGSLRLSCAASGSTFVYYTMGWYRPAPGKERELVAAITSGTSTNYADSVKGRFTISRDNAKNTVYLQMNSLKPEDTAVYDCNAQRRGTYYWGQGTQVTVSS | high polyreactivity
QVQLVESGGGLVQAGGSLRLSCAASGSTFWANAMGWYRQAPGKERELVAGITWNAGSTYYADSVKGRFTISRDYAKNNVYFQMNSLNPEDTAVDYCAAYYHFQGWGPGYNSWGQGTQVTVSS | low polyreactivity
QVQLVESGGGLVQAGGSLRLSCAASGSTFWDYAMGWYRQAPGKERELVAAISSGGSTNYADSVKGRFTISRDNAKNTVYLQMNSLKPEDTAVYYCAVGYGGYYYWGQGTQVTVSS | high polyreactivity
